These are literature values, as cited in publication PMC8894612.

This data set addresses Regnase-1 (UniProt Q5D1E7). As to the kind of experiment: Biacore SPR. A general note: Surface plasmon resonance follows binding to a sensor surface in real time, without labels.
Chain of UniProt Q5D1E7 (Q5D1E7 whole entry): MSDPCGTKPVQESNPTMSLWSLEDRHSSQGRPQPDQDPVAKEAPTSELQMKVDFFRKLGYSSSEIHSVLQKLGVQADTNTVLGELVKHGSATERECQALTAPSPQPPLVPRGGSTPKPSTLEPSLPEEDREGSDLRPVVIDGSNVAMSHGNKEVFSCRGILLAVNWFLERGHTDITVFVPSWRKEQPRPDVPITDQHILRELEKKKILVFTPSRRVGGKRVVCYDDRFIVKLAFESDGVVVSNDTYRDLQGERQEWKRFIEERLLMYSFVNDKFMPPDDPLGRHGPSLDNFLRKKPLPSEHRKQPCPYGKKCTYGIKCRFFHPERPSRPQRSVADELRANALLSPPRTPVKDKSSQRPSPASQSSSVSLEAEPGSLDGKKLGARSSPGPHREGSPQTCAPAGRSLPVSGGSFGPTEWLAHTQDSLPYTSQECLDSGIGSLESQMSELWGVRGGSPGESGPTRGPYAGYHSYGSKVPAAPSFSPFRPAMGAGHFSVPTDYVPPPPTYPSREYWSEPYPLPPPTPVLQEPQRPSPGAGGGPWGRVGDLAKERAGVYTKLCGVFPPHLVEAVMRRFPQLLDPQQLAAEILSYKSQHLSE

Broadly, the Kd is the equilibrium constant for the complex coming apart. As to Roquin-1 (from UniProt Q4VGL6), the Kd was 417 nM.
